Experiments:
[1] = system: HeLa Kyoto; experiment: solubility in G1/S (NP-40 vs SDS abundance) (log2 ratio); higher = more soluble; details: cell cycle stage: G1/S
[2] = system: HeLa Kyoto; experiment: melting temperature (median over replicates), in situ; higher = more thermally stable
[3] = system: HeLa Kyoto; experiment: solubility change mitosis vs G1/S (difference of NP-40 vs SDS log2 ratios) (log2 ratio difference); higher = more soluble in mitosis
[4] = system: HeLa Kyoto; experiment: thermal stability score vs G1/S (z-score of summed log2 fold changes over temperatures); higher = more thermally stable than in G1/S
[5] = cell cycle stage: early G1 (4.5 h after nocodazole release)
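Wherever melting temperature (median over replicates), in situ is given: HeLa Kyoto cells synchronized by double thymidine or nocodazole block, proteins quantified by TMT10plex mass spectrometry, three independent biological replicates.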
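Wherever solubility change mitosis vs G1/S (difference of NP-40 vs SDS log2 ratios) is given: synchronized HeLa Kyoto cells (double thymidine block for G1/S, nocodazole release for mitosis), protein amounts in NP-40 versus SDS lysates quantified by mass spectrometry, three biological replicates.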
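Wherever solubility in G1/S (NP-40 vs SDS abundance) is given: HeLa Kyoto cells arrested at G1/S by double thymidine block, proteins quantified by TMT10plex mass spectrometry in mild NP-40 versus SDS extracts, three biological replicates.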
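Wherever thermal stability score vs G1/S (z-score of summed log2 fold changes over temperatures) is given: synchronized HeLa Kyoto cells, proteins quantified by TMT10plex mass spectrometry, three biological replicates, mitosis taken 0.5 h after nocodazole release, G1/S directly after double thymidine block.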

| Sequence | solubility in G1/S (log2) [1] | melting temperature ([2]; cell cycle stage: G1/S) | melting temperature ([2]; cell cycle stage: mitosis) | solubility change mitosis (log2) [3] | thermal stability score [4, 5] | thermal stability score ([4]; cell cycle stage: mitosis) |
| --- | --- | --- | --- | --- | --- | --- |
| MAAPSWRGARLVQSVLRVWQVGPHVARERVIPFSSLLGFQRRCVSCVAGSAFSGPRLASASRSNGQGSALDHFLGFSQPDSSVTPCVPAVSMNRDEQDVLLVHHPDMPENSRVLRVVLLGAPNAGKSTLSNQLLGRKVFPVSRKVHTTRCQALGVITEKETQVILLDTPGIISPGKQKRHHLELSLLEDPWKSMESADLVVVLVDVSDKWTRNQLSPQLLRCLTKYSQIPSVLVMNKVDCLKQKSVLLELTAALTEGVVNGKKLKMRQAFHSHPGTHCPSPAVKDPNTQSVGNPQRIGWPHFKEIFMLSALSQEDVKTLKQYLLTQAQPGPWEYHSAVLTSQTPEEICANIIREKLLEHLPQEVPYNVQQKTAVWEEGPGGELVIQQKLLVPKESYVKLLIGPKGHVISQIAQEAGHDLMDIFLCDVDIRLSVKLLK [ERAL1] | 0.33 | 51.2 °C | 50.9 °C | -0.061 | -1.87 | -1.48 |
| MAAQKINEGLEHLAKAEKYLKTGFLKWKPDYDSAASEYGKAAVAFKNAKQFEQAKDACLREAVAHENNRALFHAAKAYEQAGMMLKEMQKLPEAVQLIEKASMMYLENGTPDTAAMALERAGKLIENVDPEKAVQLYQQTANVFENEERLRQAVELLGKASRLLVRGRRFDEAALSIQKEKNIYKEIENYPTCYKKTIAQVLVHLHRNDYVAAERCVRESYSIPGFNGSEDCAALEQLLEGYDQQDQDQVSDVCNSPLFKYMDNDYAKLGLSLVVPGGGIKKKSPATPQAKPDGVTATAADEEEDEYSGGLC [NAPG] | 0.528 | 49.6 °C | 49.9 °C | 0.178 | -0.512 | 0.117 |
| MAARLVSRCGAVRAAPHSGPLVSWRRWSGASTDTVYDVVVSGGGLVGAAMACALGYDIHFHDKKILLLEAGPKKVLEKLSETYSNRVSSISPGSATLLSSFGAWDHICNMRYRAFRRMQVWDACSEALIMFDKDNLDDMGYIVENDVIMHALTKQLEAVSDRVTVLYRSKAIRYTWPCPFPMADSSPWVHITLGDGSTFQTKLLIGADGHNSGVRQAVGIQNVSWNYDQSAVVATLHLSEATENNVAWQRFLPSGPIALLPLSDTLSSLVWSTSHEHAAELVSMDEEKFVDAVNSAFWSDADHTDFIDTAGAMLQYAVSLLKPTKVSARQLPPSVARVDAKSRVLFPLGLGHAAEYVRPRVALIGDAAHRVHPLAGQGVNMGFGDISSLAHHLSTAAFNGKDLGSVSHLTGYETERQRHNTALLAATDLLKRLYSTSASPLVLLRTWGLQATNAVSPLKEQIMAFASK [COQ6] | -0.0254 | 54.8 °C | 55.1 °C | -0.0137 | 1.7 | 2.05 |
| MAARQAVGSGAQETCGLDRILEALKLLLSPGGSGSSSLQVTKHDVLLATLKSNLSALEDKFLKDPQWKNLKLLRDEIADKAEWPQNSVDVTWSFTSQTLLLLLCLKETMIRLAANFNPGKPNPRTPEVAPALSPDALSISQQKTVQFVLQFVVTLGICPYLMPGVGVPLRYRTEFGAVVQDVVCFDAAPDATRRLYTSCKALLNVAQHTSLGSLIFCHHFGDIAAGLCQLGFCPTKRKLLTPAEEVLTEEERTLSRGALRDMLDQVYQPLAVRELLILQGGPPQSCTDVKTQMRCRAPAWLRRLCGQLLSERLMRPNGVQAVVRGILEGAGAGAAGGSDAEVTAADWKKCDLIAKILASCPQQSLSPENYYRDICPQVLDLFHFQDKLTARQFQRVATTTFITLSRERPHLAAKYLLQPVLAPLHRCLNTAELSESDMVPGTILVTEEELSRCIEDVFKVYVVGNEPLTVLMDSLLPVLGVLFLLYCFTKQSVSHIRSLCQEILLWILGKLERKKAIASLKGFAGLDKAVPSLHSLCQFRVATQGGIMITIKEAISDEDEDEALYQKVSSEQGRVEHLGDLLSHCQECGLAGDFFIFCLKELTHVASENETELKTEPFSSKSLLELEQHQTLLVEGQERKLLVLQLMAVLCERMSEQIFTNVTQVVDFVAATLQRACASLAHQAESTVESQTLSMSMGLVAVMLGGAVQLKSSDFAVLKQLLPLLEKVSNTYPDPVIQELAVDLRITISTHGAFATEAVSMAAQSTLNRKDLEGKIEEQQQTSHERPTDVAHSHLEQQQSHETAPQTGLQSNAPIIPQGVNEPSTTTSQKSGSVTTEQLQEVLLSAYDPQIPTRAAALRTLSHWIEQREAKALEMQEKLLKIFLENLEHEDTFVYLSAIQGVALLSDVYPEKILPDLLAQYDSSKDKHTPETRMKVGEVLMRIVRALGDMVSKYREPLIHTFLRGVRDPDGAHRASSLANLGELCQRLDFLLGSVVHEVTACLIAVAKTDGEVQVRRAAIHVVVLLLRGLSQKATEVLSAVLKDLYHLLKHVVCLEPDDVAKLHAQLALEELDDIMKNFLFPPQKLEKKIMVLP [TANGO6] | -0.171 | 50.6 °C | 50.3 °C | -0.193 | 0.0292 | 0.767 |
| MAARRALHFVFKVGNRFQTARFYRDVLGMKVESCSVARLECSGAISAHCSDYTRITEDSFSKPYDGKWSKTMVGFGPEDDHFVAELTYNYGVGDYKLGNDFMGITLASSQAVSNARKLEWPLTEVAEGVFETEAPGGYKFYLQNRSLPQSDPVLKVTLAVSDLQKSLNYWCNLLGMKIYEKDEEKQRALLGYADNQCKLELQGVKGGVDHAAAFGRIAFSCPQKELPDLEDLMKRENQKILTPLVSLDTPGKATVQVVILADPDGHEICFVGDEAFRELSKMDPEGSKLLDDAMAADKSDEWFAKHNKPKASG [GLOD4] | 0.42 | 50.8 °C | 50.9 °C | -0.012 | 0.704 | 0.532 |
| MAARWRFWCVSVTMVVALLIVCDVPSASAQRKKEMVLSEKVSQLMEWTNKRPVIRMNGDKFRRLVKAPPRNYSVIVMFTALQLHRQCVVCKQADEEFQILANSWRYSSAFTNRIFFAMVDFDEGSDVFQMLNMNSAPTFINFPAKGKPKRGDTYELQVRGFSAEQIARWIADRTDVNIRVIRPPNYAGPLMLGLLLAVIGGLVYLRRSNMEFLFNKTGWAFAALCFVLAMTSGQMWNHIRGPPYAHKNPHTGHVNYIHGSSQAQFVAETHIVLLFNGGVTLGMVLLCEAATSDMDIGKRKIMCVAGIGLVVLFFSWMLSIFRSKYHGYPYSFLMS [MAGT1] | -0.189 | 53.9 °C | 53.3 °C | -0.0398 | 2.09 | 2.05 |
| MAASKPVEAAVVAAAVPSSGSGVGGGGTAGPGTGGLPRWQLALAVGAPLLLGAGAIYLWSRQQRRREARGRGDASGLKRNSERKTPEGRASPAPGSGHPEGPGAHLDMNSLDRAQAAKNKGNKYFKAGKYEQAIQCYTEAISLCPTEKNVDLSTFYQNRAAAFEQLQKWKEVAQDCTKAVELNPKYVKALFRRAKAHEKLDNKKECLEDVTAVCILEGFQNQQSMLLADKVLKLLGKEKAKEKYKNREPLMPSPQFIKSYFSSFTDDIISQPMLKGEKSDEDKDKEGEALEVKENSGYLKAKQYMEEENYDKIISECSKEIDAEGKYMAEALLLRATFYLLIGNANAAKPDLDKVISLKEANVKLRANALIKRGSMYMQQQQPLLSTQDFNMAADIDPQNADVYHHRGQLKILLDQVEEAVADFDECIRLRPESALAQAQKCFALYRQAYTGNNSSQIQAAMKGFEEVIKKFPRCAEGYALYAQALTDQQQFGKADEMYDKCIDLEPDNATTYVHKGLLQLQWKQDLDRGLELISKAIEIDNKCDFAYETMGTIEVQRGNMEKAIDMFNKAINLAKSEMEMAHLYSLCDAAHAQTEVAKKYGLKPPTL [TOMM70A] | 0.504 | 50.4 °C | 50.1 °C | 0.0273 | 2.06 | 2.92 |
| MAASMARRLWPLLTRRGFRPRGGCISNDSPRRSFTTEKRNRNLLYEYAREGYSALPQLDIERFCACPEEAAHALELRKGELRSADLPAIISTWQELRQLQEQIRSLEEEKAAVTEAVRALLANQDSGEVQQDPKYQGLRARGREIRKELVHLYPREAQLEEQFYLQALKLPNQTHPDVPVGDESQARVLHMVGDKPVFSFQPRGHLEIGEKLDIIRQKRLSHVSGHRSYYLRGAGALLQHGLVNFTFNKLLRRGFTPMTVPDLLRGAVFEGCGMTPNANPSQIYNIDPARFKDLNLAGTAEVGLAGYFMDHTVAFRDLPVRMVCSSTCYRAETNTGQEPRGLYRVHHFTKVEMFGVTGPGLEQSSQLLEEFLSLQMEILTELGLHFRVLDMPTQELGLPAYRKFDIEAWMPGRGRFGEVTSASNCTDFQSRRLHIMFQTEAGELQFAHTVNATACAVPRLLIALLESNQQKDGSVLVPPALQSYLGTDRITAPTHVPLQYIGPNQPRKPGLPGQPAVS [SARS2] | 0.265 | 51.5 °C | 51.4 °C | -0.148 | 2.24 | 1.72 |
| MAASQTSQTVASHVPFADLCSTLERIQKSKGRAEKIRHFREFLDSWRKFHDALHKNHKDVTDSFYPAMRLILPQLERERMAYGIKETMLAKLYIELLNLPRDGKDALKLLNYRTPTGTHGDAGDFAMIAYFVLKPRCLQKGSLTIQQVNDLLDSIASNNSAKRKDLIKKSLLQLITQSSALEQKWLIRMIIKDLKLGVSQQTIFSVFHNDAAELHNVTTDLEKVCRQLHDPSVGLSDISITLFSAFKPMLAAIADIEHIEKDMKHQSFYIETKLDGERMQMHKDGDVYKYFSRNGYNYTDQFGASPTEGSLTPFIHNAFKADIQICILDGEMMAYNPNTQTFMQKGTKFDIKRMVEDSDLQTCYCVFDVLMVNNKKLGHETLRKRYEILSSIFTPIPGRIEIVQKTQAHTKNEVIDALNEAIDKREEGIMVKQPLSIYKPDKRGEGWLKIKPEYVSGLMDELDILIVGGYWGKGSRGGMMSHFLCAVAEKPPPGEKPSVFHTLSRVGSGCTMKELYDLGLKLAKYWKPFHRKAPPSSILCGTEKPEVYIEPCNSVIVQIKAAEIVPSDMYKTGCTLRFPRIEKIRDDKEWHECMTLDDLEQLRGKASGKLASKHLYIGGDDEPQEKKRKAAPKMKKVIGIIEHLKAPNLTNVNKISNIFEDVEFCVMSGTDSQPKPDLENRIAEFGGYIVQNPGPDTYCVIAGSENIRVKNIILSNKHDVVKPAWLLECFKTKSFVPWQPRFMIHMCPSTKEHFAREYDCYGDSYFIDTDLNQLKEVFSGIKNSNEQTPEEMASLIADLEYRYSWDCSPLSMFRRHTVYLDSYAVINDLSTKNEGTRLAIKALELRFHGAKVVSCLAEGVSHVIIGEDHSRVADFKAFRRTFKRKFKILKESWVTDSIDKCELQEENQYLI [LIG4] | -0.0399 | 48.4 °C | 49.6 °C | -0.329 | 0.0186 | 0.758 |
| MAASSLEQKLSRLEAKLKQENREARRRIDLNLDISPQRPRPTLQLPLANDGGSRSPSSESSPQHPTPPARPRHMLGLPSTLFTPRSMESIEIDQKLQEIMKQTGYLTIGGQRYQAEINDLENLGEMGSGTCGQVWKMRFRKTGHVIAVKQMRRSGNKEENKRILMDLDVVLKSHDCPYIVQCFGTFITNTDVFIAMELMGTCAEKLKKRMQGPIPERILGKMTVAIVKALYYLKEKHGVIHRDVKPSNILLDERGQIKLCDFGISGRLVDSKAKTRSAGCAAYMAPERIDPPDPTKPDYDIRADVWSLGISLVELATGQFPYKNCKTDFEVLTKVLQEEPPLLPGHMGFSGDFQSFVKDCLTKDHRKRPKYNKLLEHSFIKRYETLEVDVASWFKDVMAKTESPRTSGVLSQPHLPFFR [MAP2K7] | 0.237 | 49.9 °C | 50 °C | 0.0421 | 1.35 | 1.39 |
